Holding throughout (experiment): cell-based or functional assay
The target in assay [1] is IL-10 receptor (hIL-10Rα and hIL-10Rβ) (human) (UniProt Q13651).
In assay [2] the target is T1, IFN-γ receptor (IFNGR1 and IFNGR2) (UniProt P15260).
T1 sequence (looked up) 1: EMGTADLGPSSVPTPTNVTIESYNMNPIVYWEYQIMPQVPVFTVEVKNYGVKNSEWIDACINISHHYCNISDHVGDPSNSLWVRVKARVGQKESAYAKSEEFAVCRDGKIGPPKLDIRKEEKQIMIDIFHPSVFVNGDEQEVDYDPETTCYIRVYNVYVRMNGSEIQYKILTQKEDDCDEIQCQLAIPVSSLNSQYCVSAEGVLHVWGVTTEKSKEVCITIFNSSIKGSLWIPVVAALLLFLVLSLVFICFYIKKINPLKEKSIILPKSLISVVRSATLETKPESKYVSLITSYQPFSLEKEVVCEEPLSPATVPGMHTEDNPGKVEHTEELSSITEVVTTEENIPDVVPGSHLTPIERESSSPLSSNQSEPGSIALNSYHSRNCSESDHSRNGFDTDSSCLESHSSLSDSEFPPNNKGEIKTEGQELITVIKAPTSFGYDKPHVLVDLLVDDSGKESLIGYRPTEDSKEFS
T1 sequence (looked up) 2: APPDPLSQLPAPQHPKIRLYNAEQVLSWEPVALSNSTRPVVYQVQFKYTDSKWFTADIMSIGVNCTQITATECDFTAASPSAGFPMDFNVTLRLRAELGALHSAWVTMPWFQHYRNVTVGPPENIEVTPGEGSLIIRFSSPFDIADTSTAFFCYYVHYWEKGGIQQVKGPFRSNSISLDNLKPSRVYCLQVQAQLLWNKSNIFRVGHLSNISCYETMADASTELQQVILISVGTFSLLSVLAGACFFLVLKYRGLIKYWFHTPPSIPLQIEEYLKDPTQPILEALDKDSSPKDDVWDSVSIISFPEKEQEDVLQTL

For assay [3], the target named is human IL-12 receptor complex (IL-12Rβ1 and IL-12Rβ2) (human) (UniProt P42701).
Chain of human IL-12 receptor complex (IL-12Rβ1 and IL-12Rβ2) (human) (Q99665 24-862, chain 2 of 2, other chains not shown): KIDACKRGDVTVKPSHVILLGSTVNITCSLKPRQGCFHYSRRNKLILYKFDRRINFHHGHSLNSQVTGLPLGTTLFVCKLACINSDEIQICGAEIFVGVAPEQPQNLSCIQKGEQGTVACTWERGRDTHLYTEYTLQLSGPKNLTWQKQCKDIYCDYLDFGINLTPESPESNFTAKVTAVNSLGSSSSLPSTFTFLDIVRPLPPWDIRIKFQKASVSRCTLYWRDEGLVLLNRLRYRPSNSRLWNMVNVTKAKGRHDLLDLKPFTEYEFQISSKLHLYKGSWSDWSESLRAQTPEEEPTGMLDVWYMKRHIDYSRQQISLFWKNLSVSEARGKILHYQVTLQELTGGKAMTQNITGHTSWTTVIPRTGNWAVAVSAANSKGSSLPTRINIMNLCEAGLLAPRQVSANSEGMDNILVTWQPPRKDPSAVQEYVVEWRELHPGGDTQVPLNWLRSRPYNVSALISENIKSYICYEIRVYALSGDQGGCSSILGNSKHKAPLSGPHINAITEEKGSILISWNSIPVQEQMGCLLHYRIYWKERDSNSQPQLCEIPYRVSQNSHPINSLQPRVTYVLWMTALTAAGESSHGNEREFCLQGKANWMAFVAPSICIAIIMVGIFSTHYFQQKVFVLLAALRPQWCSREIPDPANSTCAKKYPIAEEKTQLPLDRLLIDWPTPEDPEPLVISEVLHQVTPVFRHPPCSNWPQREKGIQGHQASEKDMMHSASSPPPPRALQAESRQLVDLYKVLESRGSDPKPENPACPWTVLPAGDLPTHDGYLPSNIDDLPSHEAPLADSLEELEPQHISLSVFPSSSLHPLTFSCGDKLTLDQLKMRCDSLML
The target of assay [4] is IL-23 receptor complex (IL-12Rβ1 and IL-23R) (UniProt P42701).
Chain of IL-23 receptor complex (IL-12Rβ1 and IL-23R) (Q5VWK5 24-629 limits assumed, chain 2 of 2, other chains not shown): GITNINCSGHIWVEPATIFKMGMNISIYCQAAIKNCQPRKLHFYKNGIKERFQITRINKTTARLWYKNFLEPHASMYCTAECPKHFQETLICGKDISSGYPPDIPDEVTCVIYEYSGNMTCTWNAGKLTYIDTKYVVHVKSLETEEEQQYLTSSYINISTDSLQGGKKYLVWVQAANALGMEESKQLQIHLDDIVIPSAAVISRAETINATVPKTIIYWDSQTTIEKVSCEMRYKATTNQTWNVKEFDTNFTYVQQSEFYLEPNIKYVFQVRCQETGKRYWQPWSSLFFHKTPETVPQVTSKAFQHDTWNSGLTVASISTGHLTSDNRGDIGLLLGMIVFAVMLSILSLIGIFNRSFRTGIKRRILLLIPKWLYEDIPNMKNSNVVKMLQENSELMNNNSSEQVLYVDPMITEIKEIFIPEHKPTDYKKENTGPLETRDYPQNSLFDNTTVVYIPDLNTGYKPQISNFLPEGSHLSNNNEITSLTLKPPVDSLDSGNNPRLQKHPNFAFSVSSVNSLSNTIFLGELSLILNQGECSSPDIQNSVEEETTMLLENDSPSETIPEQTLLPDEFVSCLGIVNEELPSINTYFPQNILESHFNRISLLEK

Chain of recombinant human IFN-γ (free state) (P01579 24-166 limits assumed): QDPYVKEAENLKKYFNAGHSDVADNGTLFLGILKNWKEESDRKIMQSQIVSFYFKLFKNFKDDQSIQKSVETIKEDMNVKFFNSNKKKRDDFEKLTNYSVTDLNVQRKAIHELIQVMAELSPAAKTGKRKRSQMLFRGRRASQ
Chain of recombinant human IL-12 (P29459 23-219 limits assumed): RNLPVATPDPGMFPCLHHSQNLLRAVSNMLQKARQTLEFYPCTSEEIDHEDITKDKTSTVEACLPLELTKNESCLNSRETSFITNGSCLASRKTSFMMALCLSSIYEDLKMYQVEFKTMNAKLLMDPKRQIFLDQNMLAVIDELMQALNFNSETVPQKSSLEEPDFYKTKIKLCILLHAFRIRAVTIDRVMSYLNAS
Chain of recombinant human IL-12 (P29460 23-328 limits assumed): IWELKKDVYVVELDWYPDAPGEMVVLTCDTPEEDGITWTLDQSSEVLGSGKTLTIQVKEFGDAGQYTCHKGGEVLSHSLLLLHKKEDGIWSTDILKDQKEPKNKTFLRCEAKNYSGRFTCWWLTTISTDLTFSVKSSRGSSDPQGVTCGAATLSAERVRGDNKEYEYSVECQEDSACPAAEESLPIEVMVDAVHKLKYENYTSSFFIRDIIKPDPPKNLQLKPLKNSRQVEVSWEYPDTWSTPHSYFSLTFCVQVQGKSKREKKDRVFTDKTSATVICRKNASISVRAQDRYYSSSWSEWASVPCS
Chain of recombinant human IL-23 (free state) (Q9NPF7 20-189 limits assumed): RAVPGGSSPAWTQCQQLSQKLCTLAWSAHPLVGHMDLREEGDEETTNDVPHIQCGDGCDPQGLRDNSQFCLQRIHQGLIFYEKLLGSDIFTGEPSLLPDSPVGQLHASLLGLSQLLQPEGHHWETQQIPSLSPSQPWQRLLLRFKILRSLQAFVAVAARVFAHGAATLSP
Chain of recombinant human IL-23 (free state) (P29460 23-328 limits assumed): as the sequence (P29460 23-328 limits assumed) above
Chain of IL-10 receptor (hIL-10Rα and hIL-10Rβ) (human) (Q13651 22-578, chain 1 of 2): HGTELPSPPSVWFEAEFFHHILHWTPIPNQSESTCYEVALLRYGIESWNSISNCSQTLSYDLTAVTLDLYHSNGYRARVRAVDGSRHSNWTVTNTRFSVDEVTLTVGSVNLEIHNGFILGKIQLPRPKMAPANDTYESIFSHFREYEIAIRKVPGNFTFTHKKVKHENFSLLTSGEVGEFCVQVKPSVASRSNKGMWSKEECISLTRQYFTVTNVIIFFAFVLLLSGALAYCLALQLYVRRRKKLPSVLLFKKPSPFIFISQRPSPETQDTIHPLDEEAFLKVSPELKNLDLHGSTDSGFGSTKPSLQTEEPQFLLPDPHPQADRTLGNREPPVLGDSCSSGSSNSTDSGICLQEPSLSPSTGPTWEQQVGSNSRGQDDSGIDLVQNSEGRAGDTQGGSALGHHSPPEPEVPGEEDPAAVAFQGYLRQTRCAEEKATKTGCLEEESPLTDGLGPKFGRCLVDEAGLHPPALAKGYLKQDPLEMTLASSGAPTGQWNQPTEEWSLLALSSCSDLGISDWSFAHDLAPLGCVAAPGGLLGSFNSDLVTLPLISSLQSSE
Chain of IL-10 receptor (hIL-10Rα and hIL-10Rβ) (human) (Q08334 20-325, chain 2 of 2, further chain): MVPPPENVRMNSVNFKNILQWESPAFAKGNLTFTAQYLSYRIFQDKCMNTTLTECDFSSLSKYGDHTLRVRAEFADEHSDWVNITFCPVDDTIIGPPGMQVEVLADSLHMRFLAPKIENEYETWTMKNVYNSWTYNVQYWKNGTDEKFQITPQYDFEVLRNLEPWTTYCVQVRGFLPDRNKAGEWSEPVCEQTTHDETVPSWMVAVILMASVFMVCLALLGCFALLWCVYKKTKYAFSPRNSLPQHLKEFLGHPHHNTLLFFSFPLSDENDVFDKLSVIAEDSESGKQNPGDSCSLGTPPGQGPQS

In assay [1], “recombinant human IL-10 (free state) (from UniProt P22301 19-178) (ligand)” displayed an IL-10 signal transduction, HEK-IL-10 cells, % of rIL-10 of 100% and an IL-10 signal transduction, HEK-PD-1-IL-10 cells, % of rIL-10 of 100%.
In the case of “recombinant human IFN-γ (free state) (from UniProt P01579 24-166) (ligand)”, in assay [2], the IFN-γ signal transduction, HEK-IFN-γ is 100%; the IFN-γ signal transduction, HEK-IFN-γ cells, % of rIFN-γ was determined as 100%; the IFN-γ signal transduction, HEK-IFN-γ-PD-1 was found to be 100%; the IFN-γ signal transduction, HEK-IFN-γ-TIGIT amounted to 100%. Besides, the IFN-γ signal transduction, HEK-PD-1-IFN-γ cells, % of rIFN-γ in assay [2] is 100%.
Turning to “recombinant human IL-12 (from UniProt P29459 23-219; P29460 23-328) (ligand)”, in assay [3], the IFN-γ release, activated PBMC came to 2300 ng/mL; the IL-12 signal transduction, HEK IL-12 was 100%; the IL-12 signal transduction, HEK-IL-12 came to 100%; the IL-12 signal transduction, HEK-IL-12-PD-1 was 100%. For the same substance, in assay [3], the IL-12 signal transduction, HEK-IL-12-PD-1 (high) worked out at 100%; the IL-12 signal transduction, HEK-IL-12-PD-1 (low) was found to be 100%; the IL-12 signal transduction, HEK-IL-12-TIGIT worked out at 100%; the IL-12 signal transduction, HEK-IL-12 cells, % of rIL-12 came to 100%. Further, in assay [3], the IL-12 signal transduction, HEK-PD-1-IL-12 worked out at 100% and the IL-12 signal transduction, HEK-PD-1-IL-12 cells, % of rIL-12 amounted to 100%.
In assay [4], “recombinant human IL-23 (free state) (from UniProt Q9NPF7 20-189; P29460 23-328) (ligand)” displayed an IL-23 signal transduction, HEK-IL-23 cells, % of rIL-23 of 100% and an IL-23 signal transduction, HEK-PD-1-IL-23 cells, % of rIL-23 of 100%.

Source of the values: patent US20240392004A1.
